Assay results: publication PMC6684798, “Structural basis for the target specificity of actin histidine methyltransferase SETD3” (Nature Communications, 2019)

Target: T1, SETD3 WT (Homo sapiens, UniProt Q86TU7)
T1 construct: GST (cleaved yes); made in house; host or cells: Escherichia coli BL21(DE3) CodonPlus
T1 sequence (Q86TU7 1-594): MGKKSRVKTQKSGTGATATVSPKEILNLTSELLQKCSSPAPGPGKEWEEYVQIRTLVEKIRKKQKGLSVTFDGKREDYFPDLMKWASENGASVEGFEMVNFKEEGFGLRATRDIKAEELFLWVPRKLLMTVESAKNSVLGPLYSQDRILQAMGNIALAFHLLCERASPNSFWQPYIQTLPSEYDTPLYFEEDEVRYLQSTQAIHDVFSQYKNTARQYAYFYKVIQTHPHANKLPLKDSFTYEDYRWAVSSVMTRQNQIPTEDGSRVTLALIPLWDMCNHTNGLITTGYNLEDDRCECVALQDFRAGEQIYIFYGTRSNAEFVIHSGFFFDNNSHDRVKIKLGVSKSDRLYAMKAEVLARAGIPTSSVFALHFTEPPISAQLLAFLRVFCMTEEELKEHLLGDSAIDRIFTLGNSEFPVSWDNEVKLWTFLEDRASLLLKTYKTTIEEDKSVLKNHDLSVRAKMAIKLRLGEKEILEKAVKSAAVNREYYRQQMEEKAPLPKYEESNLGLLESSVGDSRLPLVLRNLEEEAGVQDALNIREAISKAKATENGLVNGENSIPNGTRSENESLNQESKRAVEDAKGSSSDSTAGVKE
Assay: Steady-state kinetics of SETD3 WT on K73 peptides (Fig. 3b, c; pH 10.5, 37 °C, 40 µM SAM)
Assay type: biochemical
Procedure: Fig. 3 Kinetics of SETD3 on H73 and K73 peptides. a Comparison of activities of three variants (WT, N255A, and N255V) on H73(66–80) peptide. The assays were performed at room temperature (~22 °C) and pH 8.0 using [WT] = 0.18 μM, [N255A] = 0.18 μM, and [N255V] = 0.72 μM. b Comparison of SETD3 WT activities on two K73 peptides (residues 66–80 and 66–88). The assays were performed at 37 °C and pH 10.5 using [WT] = 3 and 15 μM, respectively, for the long and short peptides. c Comparison of activities of three variants (N255A, N255V, and WT) on K73(66–88) peptide. The assays were performed at 37 °C and pH 10.5 using [N255A] = 90 nM, [N255V] = 0.72 μM and [WT] = 4 μM. Data represent the mean ± SD of N number of independent determinations (N = 3 for the WT and N = 2 for the mutants) performed in duplicate. Source data are provided as a Source Data file. d, e Mass spectrometry analysis of K73(66–88) methylation kinetic showing representative spectra at various time points for N255A variant (panel d) and SETD3 WT enzyme (panel e). The assays were performed at 37 °C and pH 10.5 using 3 μM for both N255A and WT. f In vitro methylation reactions with SETD3, indicated full-length actin proteins, and radiolabeled methyl donor (^3H-SAM). Right, Reactions were resolved by SDS–PAGE and activity was visualized by autoradiography. […] The first column head is 'SETD3', and the substrate peptide is printed only on the plot axis. / Panel b: the first column head is 'SETD3 (WT)', and the rows are K73 peptide substrates.
Recombinant human SETD3 (pXC2003) was expressed as a GST-fusion[22] in Escherichia coli BL21(DE3) CodonPlus^TM cells (Stratagene). The SETD3 mutants at residue 255 (N255A; pXC2093 and N255V; pXC2094) were generated with Q5 Site-Directed Mutagenesis Kit (New England Biolabs), confirmed by sequencing and the same protocol for expression and purification were followed. Briefly, the purification was conducted in a BIO-RAD NGC^TM system using a three-column chromatography of glutathione-sepharose, HiTrap Q-HP and Superdex 200. The GST tag was removed by PreScisson Protease (purified in-house). The purified SETD3 proteins at a concentration ~25–35 mg/ml were kept at −80 °C in storage buffer for future use [20 mM Tris (pH 8.0), 200 mM NaCl, 5% glycerol, and 0.5 mM tris (2-carboxyethyl) phosphine (TCEP)].
A reaction mixture contained 20 mM Tris/HCl (pH 8.0) or 20 mM glycine/NaOH (pH 10.5), 50 mM NaCl, 0.1 mg/ml BSA, 1 mM DTT, 0.18–15 µM SETD3 (as indicated in Fig. 3), 40 µM SAM and varying concentration of peptides. The reactions were carried out at room temperature (~22 °C) or 37 °C for different time (20 min to 3 h) with a total volume of 20 µl, and terminated by the addition of TFA to 0.1% (v/v) for Tris/HCl (pH 8.0) or 0.4% (v/v) for Glycine/NaOH (pH 10.5). Samples terminated with the addition of 0.4% (v/v) TFA were then further diluted 4× with buffer 20 mM Tris/HCl (pH 8.0), 50 mM NaCl, 0.1 mg/ml BSA, 1 mM DTT to reduce the TFA concentration. The dependence of the velocity of product formation per enzyme on substrate concentration was analyzed according to the Michaelis–Menten equation.

[1] = pH 10.5, 37 °C, [WT] = 3 and 15 μM for long and short peptide (Fig. 3b), 4 μM (Fig. 3c)
[2] = pH 10.5, 37 °C, [WT] = 3 and 15 μM for long and short peptide (Fig. 3b), 4 μM (Fig. 3c), mean ± SD

| Substance | affinity for the substrate weaker than for H73 substrate (Km, K73(66–80) vs. H73(66–80)) | maximum reaction rate slower than for H73 substrate (kcat, K73(66–80) (pH 10.5, 37 °C) vs. H73(66–80) (pH 8.0, ~22 °C)) | loss in catalytic efficiency (kcat/Km, K73(66–80) vs. H73(66–80)) | kcat/Km [1] | Km [2] | kcat [2] | increase of catalytic efficiency on K73 by lengthened peptide (factor in kcat/Km, long (66–88) vs. short (66–80) peptide) | Km compared with H73(66–80) peptide (pH 10.5, K73(66–88) vs. H73(66–80)) |
| --- | --- | --- | --- | --- | --- | --- | --- | --- |
| K73(66–80): K73-containing (H73K) actin peptide, residues 66–80 (TLKYPIEKGIVTNWD; UniProt P60709 66-80, looked up, variant H73K) | ~ 20 -fold | ~ 40 -fold | more than 1000 -fold | 0.361 M⁻¹ s⁻¹ | 430 µM | 0.00017 s⁻¹ |  |  |
| K73(66–88): K73-containing actin H73K peptide, residues 66–88 (TLKYPIEKGIVTNWDDMEKIWHH; UniProt P60709 66-88, looked up, variant H73K) |  |  |  | 36.1 M⁻¹ s⁻¹ | 5.2 µM |  | ~ 100 | about four-fold better |
